Experiment [1] addresses endogenous ATF4 of HEK293T cells (UniProt P18848). Briefly: cell-based or functional assay.
Experiment [2] has as its target full-length ATF4 (pCEP-ATF4) (UniProt P18848). Briefly: cell-based or functional assay.

Data on two substances can be found in patent publication US7838231.

Sequence of full-length ATF4 (pCEP-ATF4) (P18848 whole entry): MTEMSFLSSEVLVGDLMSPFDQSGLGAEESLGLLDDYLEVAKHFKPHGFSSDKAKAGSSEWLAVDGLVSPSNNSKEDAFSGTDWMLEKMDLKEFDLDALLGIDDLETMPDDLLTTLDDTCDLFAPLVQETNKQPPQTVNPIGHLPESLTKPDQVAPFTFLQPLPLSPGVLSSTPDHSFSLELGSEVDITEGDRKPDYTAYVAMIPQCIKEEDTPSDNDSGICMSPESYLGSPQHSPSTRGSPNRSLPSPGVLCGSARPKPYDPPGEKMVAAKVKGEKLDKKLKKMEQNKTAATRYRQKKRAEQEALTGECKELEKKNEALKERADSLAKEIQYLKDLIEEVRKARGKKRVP
Sequence of endogenous ATF4 of HEK293T cells (P18848 whole entry): as above

In experiment [1], “endogenous NPHP6 of HEK293 / HEK293T cells (from UniProt O15078 1-2479)” displayed a reporter activity (pCRE-ATF4X2, HEK293T cells) after knock-down of NPHP6 with pTER-NPHP6, compared to empty vector of 75.4%. For the substance “myc-tagged full-length human NPHP6 (pCJW206-Cep290) (from UniProt O15078 1-2479)”, in experiment [2], the reporter activity (dual-luciferase reporter construct for ATF4, pCRE-ATF4×2, in HEK293T cells), compared to empty vector pCEP4F came out at 9.7 fold and the reporter activity (pCRE-ATF4×2, HEK293T cells) with either construct alone, compared to empty vector pCEP4F was 2 fold.
